The results in this text go back to EP4591887A1, “GPC3 ANTIBODY-DRUG CONJUGATE AND USE THEREOF” (priority 2022, dated 2024).

Numbering of substitutions follows the chain as printed.

The labels stand for the following.
B1: Hu 52H5D3B8-8 (antibody, human IgG1, kappa, V domains shown)
VH: EVQLVQSGAEVKKPGASVKVSCKASGYTFTDYEMHWVRQAPGQGLEWMGAIHPGSGGTAYNQKFKGRVTMTADKSISTAYMELSRLRSDDTAVYYCTRFYSYAYWGQGTLVTVSS
VL: DVVMTQTPLSLSVTPGQPASISCRSSQSLVHSNGNTYLQWYLQKPGQSPQLLIYKVSNRFSGVPDRFSGSGSGTDFTLKISRVEAEDVGVYFCSQSIHVPYTFGGGTKVEIKR
notes: also called humanized GPC3 antibody Hu 52H5D3B8-8
B2: Y035 antibody (CARSGEN Therapeutics), humanized (antibody, V domains shown)
VH: B1 VH with F29H, T30S, G57D, K63R, M70I, I76T, R85S, D89E, T97A, S115A
VL: B1 VL with V2I, S12P, Q17E, F92Y, H98Y, G105Q, V109L
B3: Y035 CDRs with Hu 52H5D3B8-7 FRs (antibody, V domains shown)
VH: B1 VH with G57D, K63R
VL: DVVMTQTPLSLSVTPGQPASISCRSSQSLVHSNGNTYLQWYLQKPGQSPQLLIYKVSNRFSGVPDRFSGSGSGTDFTLKISRVEAEDVGVYYCSQSIYVPYTFGGGTKVEIK
notes: built here from the pieces; detected with anti-human IgG
B4: Hu 52H5D3B8-7/8 CDRs with Y035 FRs (antibody, V domains shown)
VH: B1 VH with F29H, T30S, M70I, I76T, R85S, D89E, T97A, S115A
VL: B1 VL with V2I, S12P, Q17E, F92Y, G105Q, V109L
B5: Hu 52H5D3B8-7 (antibody, human IgG1, kappa, V domains shown)
VH: B1 VH
VL: B1 VL with F92Y
notes: also called humanized GPC3 antibody Hu 52H5D3B8-7
B6: GC33 antibody (Chugai Pharmaceutical) (antibody, V domains shown)
VH: QVQLVQSGAEVKKPGASVKVSCKASGYTFTDYEMHWVRQAPGQGLEWMGALDPKTGDTAYSQKFKGRVTLTADKSTSTAYMELSSLTSEDTAVYYCTRFYSYTYWGQGTLVTVSS
VL: B3 VL with T7S, S12P, Q17E, Q39H, S96N, I97T, Y98H, Y101P, G105Q, V109L
notes: Control antibody, prepared as in US 7919086 B2; Whole antibody; Detected with anti-human IgG
B7: Hu 52H5D3B8-8-L4-D4 (antibody, human IgG1, kappa, V domains shown)
VH: B1 VH
VL: B1 VL
modifications: MC-MMAF (L4-D4) on cysteine thiols freed by TCEP reduction of disulfide bonds; positions not given
notes: Constant regions as for Hu 52H5D3B8-8; also called Hu 52H5D3B8-8 ADC; Anti-GPC3-L4-D4
B8: Hu 52H5D3B8-8-ZLA (antibody, human IgG1, kappa, V domains shown)
VH: B1 VH
VL: B1 VL
modifications: ZLA linker-payload on cysteine thiols freed by TCEP reduction of disulfide bonds; positions not given
notes: Constant regions as for Hu 52H5D3B8-8; also called Hu 52H5D3B8-8 ADC; Anti-GPC3-ZLA
B9: GC33-ZLA (antibody, V domains shown)
VH: B6 VH
VL: B3 VL with T7S, S12P, Q17E, Q39H, S96N, I97T, Y98H, Y101P, G105Q, V109L
modifications: ZLA linker-payload on cysteine thiols of the antibody freed by TCEP reduction of disulfide bonds; positions not given
notes: Whole antibody; also called GC33 ADC; Anti-GPC3-ZLA
B10: GC33-L4-D4 (antibody, V domains shown)
VH: B6 VH
VL: B3 VL with T7S, S12P, Q17E, Q39H, S96N, I97T, Y98H, Y101P, G105Q, V109L
modifications: MC-MMAF (L4-D4) on cysteine thiols of the antibody freed by TCEP reduction of disulfide bonds; positions not given
notes: Whole antibody; also called GC33 ADC; Anti-GPC3-L4-D4
B11: Hu 52H5D3B8-8-L3-D3 (antibody, human IgG1, kappa, V domains shown)
VH: B1 VH
VL: B1 VL
modifications: MA-PEG4-VC-PAB-DMEA-Duocarmycin SA (L3-D3) on cysteine thiols freed by TCEP reduction of disulfide bonds; positions not given
B12: Hu 52H5D3B8-8-L1-D1 (antibody, human IgG1, kappa, V domains shown)
VH: B1 VH
VL: B1 VL
modifications: MC-vc-PAB-MMAE (L1-D1) on cysteine thiols freed by TCEP reduction of disulfide bonds; positions not given
B13: Hu 52H5D3B8-7-L1-D1 (antibody, human IgG1, kappa, V domains shown)
VH: B1 VH
VL: B1 VL with F92Y
modifications: MC-vc-PAB-MMAE (L1-D1) on cysteine thiols freed by TCEP reduction of disulfide bonds; positions not given
B14: GC33-L3-D3 (antibody, V domains shown)
VH: B6 VH
VL: B3 VL with T7S, S12P, Q17E, Q39H, S96N, I97T, Y98H, Y101P, G105Q, V109L
modifications: MA-PEG4-VC-PAB-DMEA-Duocarmycin SA (L3-D3) on cysteine thiols of the antibody freed by TCEP reduction of disulfide bonds; positions not given
B15: GC33-L1-D1 (antibody, V domains shown)
VH: B6 VH
VL: B3 VL with T7S, S12P, Q17E, Q39H, S96N, I97T, Y98H, Y101P, G105Q, V109L
modifications: MC-vc-PAB-MMAE (L1-D1) on cysteine thiols of the antibody freed by TCEP reduction of disulfide bonds; positions not given
B16: Hu 52H5D3B8-7-L4-D4 (antibody, human IgG1, kappa, V domains shown)
VH: B1 VH
VL: B1 VL with F92Y
modifications: MC-MMAF (L4-D4) on cysteine thiols freed by TCEP reduction of disulfide bonds; positions not given

One assay concerns the target T1, human GPC3 (Glypican-3) (human, UniProt P51654 25-580).
T1 construct: whole, on cells; the cell line is named under assay or readout
Put plainly: FACS on HepG2 cells.
Settings: not given
Turning to B1, the EC50 is 351 pM. This lies in the sub-nanomolar range.
B2 gave an EC50 of 1250 pM.
On the same count and under the same terms, under B3 stands 611 pM; under B4, 769 pM; under B5, 405 pM.
On the same count and under the same terms, to B6 belongs 745 pM.

Another assay addresses T1, human GPC3 (Glypican-3). Briefly: FACS on Huh-7 cells.
Settings: not given
Molecule B1 showed an EC50 of 418 pM.
Still for that read-out and setting: under B2 stands 1180 pM; under B3, 667 pM.
Still for that read-out and setting: under B4 stands 782 pM; under B5, 464 pM; under B6, 953 pM.

A further assay addresses T1, human GPC3 (Glypican-3). Put plainly: FACS on HepG2 cells.
Settings: not given
The source holds these as a separate data set.
For the molecule B1, a half-maximal effect (EC50) was put at 0.0743 µg/mL.
The molecule B7 showed an EC50 of 0.0693 µg/mL.
The same measure, in the same setting: to B8 belongs 0.0569 µg/mL; to B6, 0.269 µg/mL.
In the case of B9, the midpoint of the response, the EC50, lay at 0.143 µg/mL.
For the molecule B10, a half-maximal response (EC50) required 0.112 µg/mL.

In another assay the target is T1, human GPC3 (Glypican-3). Briefly: cell-based or functional assay.
Settings: not given
As to B1, the “internalization on HepG2 cells (pHAb dye-labelled anti-hIgG secondary antibody, 48 h): EC50” value (from here on “internalization on HepG2 cells … EC50”) turned out to be 0.78 µg/mL and the “internalization on HepG2 cells (pHAb dye-labelled anti-hIgG secondary antibody, 48 h): Top” value (from here on “internalization on HepG2 cells … Top”) was determined as 62400.
In the case of B2, the “internalization on HepG2 cells … EC50” value was found to be 1.08 µg/mL and the “internalization on HepG2 cells … Top” value amounted to 52000.
As to B3, the “internalization on HepG2 cells … EC50” value amounted to 1.11 µg/mL and the “internalization on HepG2 cells … Top” value amounted to 52200.
The like results for B4 were, in that order, 1.14 µg/mL and 59200.
The like results for B5 were, in that order, 0.72 µg/mL and 58600.

The next assay concerns the target T1, human GPC3 (Glypican-3). Put plainly: cell-based or functional assay.
Settings: not given
This is another data set of the same source.
As to B1, the “Percentage reduction of GPC3 on cell surface (%), Huh7 cells, 2 h at 37°C against ice, FACS” value stood at 65.3%.
On the same count and under the same terms, to B11 belongs 65%; to B12, 66.5%; to B7, 63.4%.
Still for that read-out and setting: under B13 stands 70.8%; under B8, 64.3%.
For B5, the “Percentage reduction of GPC3 on cell surface (%), Huh7 cells, 2 h at 37°C against ice, FACS” value turned out to be 64.4%.
On the same count and under the same terms, under B6 stands 60%; under B9, 59%.
Still for that read-out and setting: under B14 stands 59.9%.
The same measure, in the same setting: under B10 stands 61.3%; under B15, 63.1%.

The next assay has as its target T1, human GPC3 (Glypican-3). Briefly: cell-based or functional assay.
Settings: not given
This is another data set of the same source.
Consider B11, for which the “EC50 value of cytotoxicity, Huh7 cells (96 h, PrestoBlue)” value (“EC50 value of cytotoxicity, Huh7 cells” for short) stood at 0.0274 µg/mL.
With B12, the “EC50 value of cytotoxicity, HepG2 cells (96 h, PrestoBlue)” value (“EC50 value of cytotoxicity, HepG2 cells” for short) is 0.0409 µg/mL and the “EC50 value of cytotoxicity, Huh7 cells” value turned out to be 0.038 µg/mL.
For B8 the same measures were 0.0391 µg/mL and 0.00352 µg/mL.
As to B16, the “EC50 value of cytotoxicity, Huh7 cells” value stood at 0.00455 µg/mL.
In the case of B9, the “EC50 value of cytotoxicity, HepG2 cells” value was 0.0892 µg/mL and the “EC50 value of cytotoxicity, Huh7 cells” value worked out at 0.0148 µg/mL.
As for B14, the “EC50 value of cytotoxicity, Huh7 cells” value came out at 0.0694 µg/mL.
As for B10, the “EC50 value of cytotoxicity, Huh7 cells” value worked out at 0.00882 µg/mL.
For the molecule B15, the “EC50 value of cytotoxicity, HepG2 cells” value came out at 0.0732 µg/mL and the “EC50 value of cytotoxicity, Huh7 cells” value was found to be 0.0786 µg/mL.

The test system of another assay is PDX model LIV#219 of nude mice with human liver cancer. Put plainly: Antitumor activity in LIV#219 liver cancer PDX model. The class given is in vivo, BALB/c nude mice. The following applies: 3 mg/kg, Day 26. The procedure: The antitumor activity of GPC3-ADCs was tested in an LIV#219 liver cancer PDX model. The model has a higher expression level of GPC3 RNA, and a positive expression of GPC3 as confirmed by FACS analysis.
The process of the establishment of a PDX model of nude mice with human liver cancer was as follows: A tumor tissue with a volume size of about 15-30 mm^3 was transplanted subcutaneously under the back of the BALB/c nude mice. When the tumor volume reached 250-360 mm^3, the mice were divided into a total of 4 groups by a randomized block method, with 6 mice per group, ensuring uniformity in tumor volume and balance in body weight between these groups. The groups included a vehicle group, a 3 mg/kg GC33-L1-D1 administration group, a 3 mg/kg Hu 52H5D3B8-7-L1-D1 administration group, and a 3 mg/kg Hu 52H5D3B8-8-L1-D1 administration group.
Data analysis: During the experiment, the tumor volume was measured twice a week. The calculation formula for the tumor volume (TV) is: TV = l × w^2 / 2, in which l and w represent the measured length and width of the tumor, respectively. According to the measurement results, the relative tumor volume (RTV) was calculated by RTV = Vf / V0, in which V0 is the tumor volume measured at the time of grouping for administration (i.e., Day 0), and Vf is the tumor volume measured on the last day. […]
With B15, the “relative tumor proliferation rate (T/C) (%)” value worked out at 54.90% and the “tumor growth inhibition rate (TGI %)” value was 45.10%.

For another assay, the target named is T1, human GPC3 (Glypican-3). Briefly: FACS on HepG2 cells, top of the fitted fluorescence curve.
Settings: not given
With B1, the Top amounted to 75000.
The same measure, in the same setting: under B7 stands 72900; under B8, 69100.
The same measure, in the same setting: to B6 belongs 64100; to B9, 68000.
For the molecule B10, the Top stood at 60200.

The target in the next assay is T1, human GPC3 (Glypican-3). Put plainly: FACS on CHO-K1 cells overexpressing human GPC3 (GPC3-CHO-K1).
Settings: not given
For B1, a half-maximal effect (EC50) was put at 411 pM.
The same measure, in the same setting: under B2 stands 1460 pM.
Still for that read-out and setting: to B3 belongs 907 pM; to B4, 763 pM.
Still for that read-out and setting: under B5 stands 446 pM; under B6, 956 pM.

In general, EC50 refers to the midpoint of the concentration-response curve. A higher EC50 goes with lower potency in that assay.
